Assay results published in paper PMC9669019, “Molecular basis for integrin adhesion receptor binding to p21-activated kinase 4 (PAK4)” (Communications Biology, 2022).

How the values were obtained:
[1] = test system: integrin β5 tail; assay: Pull-down of wild-type and mutated full-length GFP-PAK4 by wild-type integrin β5 tail; format: binding
Experimental: (§1) Pull down assays were performed as previously described[45],[60]. Briefly, constructs encoding an N-terminal His-tag followed by a helical region, a 4-glycine spacer, and an integrin cytoplasmic tail sequence were produced in BL21 (DE3) bacteria. Following bacterial cell lysis, recombinant protein was bound to Ni-NTA beads, eluted with imidazole, dialyzed and further purified by reverse-phase high-performance liquid chromatography (HPLC). Purified protein was lyophilized for storage and was used to coat fresh Ni-NTA beads to generate an affinity matrix for pull-down assays.
(§2) For pulldowns from cell lysates, human PAK4 constructs were generated in pEGFP (Takara Bio Inc.) by PCR amplification from a pLX304 PAK4 isoform 1 (Uniprot O96013-1) construct kindly provided by Michael Calderwood (Dana-Farber Cancer Institute). Mutations and deletions were introduced by QuikChange mutagenesis or PCR amplification. Chinese hamster ovary (CHO) cells were seeded on 10 cm tissue culture dishes and transiently transfected with GFP-tagged constructs using polyethylenimine (Polysciences). After 24 h, cells were harvested and lysed in buffer X (1 mM NaVO4, 50 mM NaF, 40 mM sodium pyrophosphate, 50 mM NaCl, 150 mM sucrose, 10 mM Pipes, pH 6.8) containing 0.5% Triton X-100, 0.2% deoxycholic acid, and complete EDTA-free protease inhibitor mixture (Roche, Indianapolis, IN, USA) for 15 min at 4 °C. After clarification by centrifugation, lysate was diluted in buffer X-T (buffer X with 0.05% Triton X-100) and incubated with His-tagged integrin tails coupled to Ni-NTA beads for 4 h with rocking at 4 °C. For experiments using purified PAK4cat, protein was incubated with His-tagged integrin tails coupled to Ni-NTA beads in buffer X-T for 2 h with rocking at 4 °C. Beads were then washed three times with buffer X-T, and bound proteins were fractionated by reducing SDS-PAGE and analyzed by immunoblotting with anti-GFP antibodies (600-101-215, Rockland). Immunoblots were imaged on an Odyssey IR imaging system (Li-Cor; Lincoln, NE, USA) and analyzed using Image Studio Lite (Li-Cor; Lincoln, NE, USA). For the quantification of binding from immunoblots, the fluorescence intensity of the band corresponding to bound material was quantified as a fraction of the fluorescence of the input material band for each condition. Loading of integrin tails was assessed by Coomassie Blue staining. Data were analyzed using GraphPad Prism.

[2] = test system: integrin β5 tail; assay: Pull-down of wild-type and mutated GFP-PAK4 catalytic domain by wild-type integrin β5 tail; format: binding
Experimental: as §1, §2

[3] = Figure 4G source data, PAK4 catalytic domain, replicate 1

Molecule	Binding to wild-type integrin β5 tail, normalized to FL-WT ([1]; Figure 4H source data, full-length PAK4, experiment row r4)	Binding to wild-type integrin β5 tail, normalized to FL-WT ([1]; Figure 4H, experiment row r7)	Binding to wild-type integrin β5 tail, normalized to FL-WT ([1]; Figure 4H, experiment row r13)	Binding to wild-type integrin β5 tail, normalized to FL-WT ([1]; Figure 4H, experiment row r14)	Binding to wild-type integrin β5 tail, normalized to FL-WT ([1]; Figure 4H, experiment row r15)	Binding to wild-type integrin β5 tail, normalized to cat-WT [2, 3]	Binding to wild-type integrin β5 tail, normalized to cat-WT ([2]; Figure 4G, replicate 2)	Binding to wild-type integrin β5 tail, normalized to cat-WT ([2]; Figure 4G, replicate 3)	Binding to wild-type integrin β5 tail, normalized to cat-WT ([2]; Figure 4G, replicate 4)	Binding to wild-type integrin β5 tail, normalized to cat-WT ([2]; Figure 4G, replicate 5)	Binding to wild-type integrin β5 tail, normalized to cat-WT ([2]; Figure 4G, replicate 6)	Binding to wild-type integrin β5 tail, normalized to cat-WT ([2]; Figure 4G, replicate 7)	Binding to wild-type integrin β5 tail, normalized to FL-WT ([1]; Figure 4H, experiment row r5)	Binding to wild-type integrin β5 tail, normalized to FL-WT ([1]; Figure 4H, experiment row r6)	Binding to wild-type integrin β5 tail, normalized to FL-WT ([1]; Figure 4H, experiment row r8)	Binding to wild-type integrin β5 tail, normalized to FL-WT ([1]; Figure 4H, experiment row r9)	Binding to wild-type integrin β5 tail, normalized to FL-WT ([1]; Figure 4H, experiment row r17)	Binding to wild-type integrin β5 tail, normalized to FL-WT ([1]; Figure 4H, experiment row r19)
D444R: GFP-tagged PAK4 D444R mutant; catalytic domain (Fig 4G) or full-length (Fig 4H) (protein, UniProt O96013 1-591, looked up, variant D444R, GFP tag; catalytic domain or full-length) Serine/threonine-protein …: MFGKRKKRVEISAPSNFEHRVHTGFDQHEQKFTGLPRQWQSLIEESARRPKPLVDPACITSIQPGAPKTIVRGSKGAKDGALTLLLDEFENMSVTRSNSLRRDSPPPPARARQENGMPEEPATTARGGPGKAGSRGRFAGHSEAGGGSGDRRRAGPEKRPKSSREGSGGPQESSRDKRPLSGPDVGTPQPAGLASGAKLAAGRPFNTYPRADTDHPSRGAQGEPHDVAPNGPSAGGLAIPQSSSSSSRPPTRARGAPSPGVLGPHASEPQLAPPACTPAAPAVPGPPGPRSPQREPQRVSHEQFRAALQLVVDPGDPRSYLDNFIKIGEGSTGIVCIATVRSSGKLVAVKKMDLRKQQRRELLFNEVVIMRDYQHENVVEMYNSYLVGDELWVVMEFLEGGALTDIVTHTRMNEEQIAAVCLAVLQALSVLHAQGVIHRDIKSRSILLTHDGRVKLSDFGFCAQVSKEVPRRKSLVGTPYWMAPELISRLPYGPEVDIWSLGIMVIEMVDGEPPYFNEPPLKAMKMIRDNLPPRLKNLHKVSPSLKGFLDRLLVRDPAQRATAAELLKHPFLAKAGPPASIVPLMRQNRTR	0.011	0.517	0.253	0.329	0.208	0.1667	0.1098	2.475e-5	0.334	0.004908	0.1746	0.115						
E512A: GFP-tagged PAK4 E512A mutant; catalytic domain (Fig 4G) or full-length (Fig 4H) (protein, UniProt O96013 1-591, looked up, variant E512A, GFP tag; catalytic domain or full-length) Serine/threonine-protein …: MFGKRKKRVEISAPSNFEHRVHTGFDQHEQKFTGLPRQWQSLIEESARRPKPLVDPACITSIQPGAPKTIVRGSKGAKDGALTLLLDEFENMSVTRSNSLRRDSPPPPARARQENGMPEEPATTARGGPGKAGSRGRFAGHSEAGGGSGDRRRAGPEKRPKSSREGSGGPQESSRDKRPLSGPDVGTPQPAGLASGAKLAAGRPFNTYPRADTDHPSRGAQGEPHDVAPNGPSAGGLAIPQSSSSSSRPPTRARGAPSPGVLGPHASEPQLAPPACTPAAPAVPGPPGPRSPQREPQRVSHEQFRAALQLVVDPGDPRSYLDNFIKIGEGSTGIVCIATVRSSGKLVAVKKMDLRKQQRRELLFNEVVIMRDYQHENVVEMYNSYLVGDELWVVMEFLEGGALTDIVTHTRMNEEQIAAVCLAVLQALSVLHAQGVIHRDIKSDSILLTHDGRVKLSDFGFCAQVSKEVPRRKSLVGTPYWMAPELISRLPYGPEVDIWSLGIMVIEMVDGAPPYFNEPPLKAMKMIRDNLPPRLKNLHKVSPSLKGFLDRLLVRDPAQRATAAELLKHPFLAKAGPPASIVPLMRQNRTR		0.561				0.4077	0.4295	0.5407	0.2568	0.7435	0.2789	0.1085	0.029	0.62	0.262	0.4	0.03	0.1
